Test results published in article PMC4958592 (Molecular cell, 2016).

Target: methyltransferase domain of Mettl3 (MTD3, residues 357-580) (human, UniProt Q86U44 357-580)
Test: SEC-MALS

Chain of methyltransferase domain of Mettl3 (MTD3, residues 357-580) (Q86U44 357-580): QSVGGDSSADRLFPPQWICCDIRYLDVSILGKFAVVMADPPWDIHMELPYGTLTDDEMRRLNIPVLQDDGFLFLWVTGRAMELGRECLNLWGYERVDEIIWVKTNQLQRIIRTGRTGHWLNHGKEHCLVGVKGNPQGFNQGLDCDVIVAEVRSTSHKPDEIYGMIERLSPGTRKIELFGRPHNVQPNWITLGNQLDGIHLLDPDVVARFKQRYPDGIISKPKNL

B1: methyltransferase domain of Mettl14 (MTD14, residues 111-456) (domain or fragment, human, UniProt Q9HCE5 111-456, looked up)
chain: QSLNPHNDYCQHFVDTGHRPQNFIRDVGLADRFEEYPKLRELIRLKDELIAKSNTPPMYLQADIEAFDIRELTPKFDVILLEPPLEEYYRETGITANEKCWTWDDIMKLEIDEIAAPRSFIFLWCGSGEGLDLGRVCLRKWGYRRCEDICWIKTNKNNPGKTKTLDPKAVFQRTKEHCLMGIKGTVKRSTDGDFIHANVDIDLIITEEPEIGNIEKPVEIFHIIEHFCLGRRRLHLFGRDSTIRPGWLTVGPTLTNSNYNAETYASYFSAPNSYLTGCTEEIERLRPKSPPPKSKSDRGGGAPRGGGRGGTSAGRGRERNRSNFRGERGGFRGGRGGAHRGGFPPR
**Q.** B1 was tested. Which “stoichiometry N” value did it give?
**A.** The value was 1.
